# Measurements taken from the DeepSol protein solubility set.
# Experiment: soluble on expression in E. coli; label from the status in PepcDB or PDB records
row,Sequence,soluble on expression in E. coli
1,GMNLANIVQRGWEALGAGDFDTLVTDYVEKMIFIMPGQADVLKGRQAFRSALDNLGEILPPGFEITGLRQLEGENEIVSIVEWKSDKMIASQLSVLFKFEGDQIYEERWFVDTEQWKSVF,soluble
2,GMNLTELMERIPHLREILNIVREAFKDYDDPAHDISHTFRVMENASEIASREKCDLQKAIIAALLHDIKRPHEALTGVDHAESGAEYASGLLPTMGFDISFVAEVSKAIRSHRYSGGLTPTSLTGKILQDADRLDAIGAVAIARVFSYSGKTGTPLHSLQFSPRSSYSGNSRSSINHFHEKILKIRPETFWTETARKMAEDRYSFVVEFVQRFLAEWGQI,soluble
3,GMNTLLKQLKPYPFARLHEAMQGISAPEGMEAVPLHIGEPKHPTPKVITDALTASLHELEKYPLTAGLPELRQACANWLKRRYDGLTVDADNEILPVLGSREALFSFVQTVLNPVSDGIKPAIVSPNPFYQIYEGATLLGGGEIHFANCPAPSFNPDWRSISEEVWKRTKLVFVCSPNNPSGSVLDLDGWKEVFDLQDKYGFIIASDECYSEIYFDGNKPLGCLQAAAQLGRSRQKLLMFTSLSKRSNVPGLRSGFVAGDAELLKNFLLYRTYHGSAMSIPVQRASIAAWDDEQHVIDNRRLYQEKFERVIPILQQVFDVKLPDASFYIWLKVPDGDDLAFARNLWQKAAIQVLPGRFLARDTEQGNPGEGYVRIALVADVATCVKAAEDIVSLYR,soluble
4,GMQKTAFIWDLDGTLLDSYEAILSGIEETFAQFSIPYDKEKVREFIFKYSVQDLLVRVAEDRNLDVEVLNQVRAQSLAEKNAQVVLMPGAREVLAWADESGIQQFIYTHKGNNAFTILKDLGVESYFTEILTSQSGFVRKPSPEAATYLLDKYQLNSDNTYYIGDRTLDVEFAQNSGIQSINFLESTYEGNHRIQALADISRIFETK,soluble
5,GMQTLNDIYLAYLDSLNHQAFDELGTFVDDNVEHNGRPFGLSGYRDMLVKDFADIPDLRFEAEILVSDATRLAARLFFDCTPKSIFMDLPVNGRRVQFCEHVFYDFEQAKIRRVWSVLDKVAIERQLG,soluble
6,GMQYATLELNNAFKVLFSLRQVQAAEMVIAPGDREGGPDNRHRGADQWLFVVDGAGEAIVDGHTQALQAGSLIAIERGQAHEIRNTGDTPLKTVNFYHPPAYDAQGEPLPAGEG,soluble
7,GMREDMKDNVVKDKSLEFAVRIVNLYKFLVNEQKEFVMSKQILRSGTSIGANIREAEQAQSRADFINKLNIALKEANETEYWLELLIRTEYITREQYESINNDSTEINKLLISIIKTTKNN,soluble
8,GMRNMQEKGVSEKEILEELKKYRSLDLKYEDGNIFGSMCSNVLPITRKIVDIFLETNLGDPGLFKGTKLLEEKAVALLGSLLNNKDAYGHIVSGGTEANLMALRCIKNIWREKRRKGLSKNEHPKIIVPITAHFSFEKGREMMDLEYIYAPIKEDYTIDEKFVKDAVEDYDVDGIIGIAGTTELGTIDNIEELSKIAKENNIYIHVDAAFGGLVIPFLDDKYKKKGVNYKFDFSLGVDSITIDPHKMGHCPIPSGGILFKDIGYKRYLDVDAPYLTETRQATILGTRVGFGGACTYAVLRYLGREGQRKIVNECMENTLYLYKKLKENNFKPVIEPILNIVAIEDEDYKEVCKKLRDRGIYVSVCNCVKALRIVVMPHIKREHIDNFIEILNSIKRD,soluble
9,GMSKPAITLWSDAHFFSPYVLSAWVALQEKGLSFHIKTIDLDSGEHLQPTWQGYGQTRRVPLLQIDDFELSESSAIAEYLEDRFAPPTWERIYPLDLENRARARQIQAWLRSDLMPIREERPTDVVFAGAKKAPLTAEGKASAEKLFAMAEHLLVLGQPNLFGEWCIADTDLALMINRLVLHGDEVPERLVDYATFQWQRASVQRFIALSAKQSG,soluble
10,GMTDTNLVEMRAIERMMFDYSYHLDMNHPEELAALFVEDCEVSYAPNFGATGRDAYKKTLEGIGTFFRGTSHHNSNICIDFVSETEANVRSVVLAIHRYTKERPDGILYGQYFDTVVKVDGQWKFKRRELRTTMTTDYHVRAANPIGRAE,soluble
11,GMTDWQQALDRHVGVGVRTTRDLIRLIQPEDWDKRPISGKRSVYEVAVHLAVLLEADLRIATGATADEMAQFYAVPVLPEQLVDRLDQSWQYYQDRLMADFSTETTYWGVTDSTTGWLLEAAVHLYHHRSQLLDYLNLLGYDIKLDLFE,soluble
12,GMTISRNYDQEIKDTAGHKYAYNFDFDVMHPFMVRAFTPFFRPGNLLELGSFKGDFTSRLQEHFNDITCVEASEEAISHAQGRLKDGITYIHSRFEDAQLPRRYDNIVLTHVLEHIDDPVALLKRINDDWLAEGGRLFLVCPNANAVSRQIAVKMGIISHNSAVTEAEFAHGHRCTYALDTLERDASRAGLQVTYRSGIFFKALANFQWDQILQTDILSKEYLDGCYQLGQQYPDLCASIFLLCEKGINQ,soluble
13,GMTLAALCQGVLERLDPRQPGRQLVALSGAPGSGKSTLSNPLAAALSAQGLPAEVVPMDGFHLDNRLLEPRGLLPRKGAPETFDFEGFQRLCHALKHQERVIYPLFDRARDIAIAGAAEVGPECRVAIIEGNYLLFDAPGWRDLTAIWDVSIRLEVPMADLEARLVQRWLDHGLNHDAAVARAQGNDLANARAIEAARLPADLTWPQA,soluble
14,GMWDETELGLYKVNEYVDARDTNMGAWFEAQVVRVTRKAPSRDEPCSSTSRPALEEDVIYHVKYDDYPENGVVQMNSRDVRARARTIIKWQDLEVGQVVMLNYNPDNPKERGFWYDAEISRKRETRTARELYANVVLGDDSLNDCRIIFVDEVFKIERPGE,soluble
15,GNDIDYSVGGSVSDAVSEVTEYANAKKNDPYGSWYTGRKVGEIWGYRAEGLIQTQEEADAYNAEYDLSYISGKLWEPGDVKYIDLDGNKVIDRGDNRLVDGDMGDQTIIGNTTPRYQYTFNGYISWKGLSLSVMFQGVGKRDWVAGGAYFWGFGPYAQVTVFKEHMDYWRPDNPGAYYPKPYINSAGGVAPYQDKNIQRTDLYLQNAAYCRLKNLTLSYDLPNAWVHKAGLQKVQVFFSGENLLTFTKLKGMFDPEAIFSSNSYTSEGGKNYPMNRVLSLGFIVNL,not soluble
16,GNIAKPIRILGNGMDRVANGELETRISQQVDDRDDELSHLAIQFDKMVEKLEKLVAKERHLLHHVSHEMRSPLARMQAIVGLIQAQPQKQEQYLKRLEGELTRMDTLAGELLTLSRLETSNMALEKESLKLLPFLGNLVEDNQSIAQKNGQTVTLSADGKIPENTTILANESYLY,not soluble
17,GNYENINSNPYEAPDLSADGYALGSAMNNLAGCVVSPDVNTAQFTDCLLGGPLGGYFADSNAGFTETISNFNPKDDWSRVFLKSDKIIPTLYSNLTQVKLVSQNTNDPVPYAIAQVIKVAAMHRVTDAFGPIPYSQIGANGEIATPYDSQEVTYNTFFDELNAAIATLNENSNEQLVPTADYIYKGDVKKWIRFANSLKLRLAIRIAYANPVKAQQMAEEAVNPANGGVIESNADNATWNYFETSQNPIYVATRYNQVQTSDHGGVPCLTGGDTHAAADIICYMNGYKDNRREKFFTKSEWAGQDYVGMRRGIVIPELKTTGHKYSGVNIAPTSPLYWMNAAEVAFLRAEGQAVFNFSMGGTAESFYNQGIRLSFEQWGADGVEDYLKDDVNKPTAYTDPAGTNTYQNALSNITIKWNDSADKEEKQERIIVQKWIANWQLGNEAWADFRRTGYPKLIPVKENKSGGVVDSEKGARRMPYPLDEFVSNKANVEYAIANYLHGADNMATDVWWASKK,soluble
18,GPEQAMYSFMTYYIAMKTIDAVIQGLDETKAVIIVSEQYDEISDAILHRLGRGTTKLKGKGGYTDEEKDVIYAVVTRLEVTKLKSIVFEVDQNAFITIMNTHETRGGKFKNAIH,not soluble
19,GPGSAPSKDGHVFEMSRPEQAAYGLAMSLVRWHAFNRFCANCGTATDPTRDVGFSRFCPKCRKQHFPQLVPAVLVAVLDGKGNVILSQRRKESKVLTLLSGFVLHGESAEETVRREVEEESGARVSKVRYIGSQPWPYPYLMMMCYYAVADASPSLVVDASELERVMWVSKQDVRRALEGQHSDMELRGPGTTPYAMLKPWVDGKVDDRGRITKPQSQL,not soluble
20,GPGSDGVWLEELEMEPSQYLPDLKEDELLKTPAVMVNLNRPMPEVLQELSKHPVRTRLSLTGTIIVARDSAHARMREMLEAGKPLPQYMKEHPVYYAGPAKQPDGLPSGSFGPTTAGRMDPFVDLFQSHGGSMVMLAKGNRSKQVTKACHKYGGFYLGSIGGPAAVLAQNAIKKVECLDMKDLGMEAVWRIEVENFPAFIVVDDKGNDFFEQL,soluble
21,GPGSMAEEIRTMIIGTSSAFRANVLREHFGDRFRNFVLLPPDIDEKAYRAADPFELTESIARAKMKAVLEKARQHSPPISGPAIALTFDQVVVKGDEVREKPLSTEQCRSFIASYSGGGVRTVATYALCVVGTENVLVAHNETETFFSKFGDDIVERTLERGACMNSAGGLVVEDEDMSRHVVRIVGTSYGVRGMEPAVVEKLLSQL,soluble
22,GPGSMAHCCFLIYPLAKVADESFLQLLFDDSVKRSAFLGYPPRRFAIVELEESQNEAVLRAIGARDDDGRVEAREDNADTPFVDLFTRTGAKKGTDRNEPIGLRMGCIPHLSQVRFRRTYLRVIVSPVTIDELFGCVQKDSNHVKKEKRSLKRSRHTDEDAGPWVPRWPVANGDPTLAGRVEVVSMTGASRAGLSGDPEDERYREPYAECSGGPVCNMSPPKTFLSDDSAGDAAGRRALDVSVQNLIRELGFDK,not soluble
23,GPGSMAKSSRSKWKKMHRRQRAQAEATNTVKRICLLNKKLKLTVKGGISAVPPQEPEKRFHFLNPVLDSRVPNTRKNLNNNYRAELNHVEYDYTKPLKLAPPKTNMYGKTDVDAPHPMTVMYETIDADTPLAGHALTKADMERLARRQAQQESEASAAVADAEKDASKEDGDNADDGPEEYVFGMEDAAPRRARGQHKTSAKKKGSVAPKALKGAASASVGASSSVSETGSSSRMLAAAAAAMTNEEEEADHRTRNGGVTAVNKIASMQTMRKKNGTMVSAGGASKMKKVGQLGGSSGTRVVSSGGKVARKDVGNAKSGSKR,soluble
24,GPGSMAPLPRKALLAITSAHPPFWPDGKRTGLFFSEALHPFNELTAAGFEVDVASETGTFGWDEHSLTQEYLSKEDEKVLHSEHNHFMEKMNKQVFKAGDLAPHDYGLMFVCGGHGALYDFPHAKHLQNIAQDIYKRGGVIGAVCHGPAMLPGIHDENGDSVIKDKTVTGFTTKGEIMIKVIDKMREDHLHTIADMAQTANAEYVPPEDPWDDFCKVDGRIVTGANPQSATNTARDTIKVYEGIVNE,soluble
25,GPGSMEAVGTADRPSLEFCPQAQNSPQTRPLLCVRRPPETVRRRHDRNPPRDSTQTADAVPWDSSSSPPHASCTAGGYKTSRGARQMALPFLFPPPGVGQRSFVADRVHRRQHCGLAQPLPQPWLRAASRSILLGDASSALPPLDPPAARPSVCRQRLALHGSGG,not soluble
26,GPGSMEDRNSVASSVFFTGVSLVIEKEKLRQHFESVGHVVSFTIFGPAPGKDFRYGIVGYMDEKTAEEAIRRLDGTTFGERAMRVTAARSTTLHGPLRAGPGGGGSGPADHSTFRKRPREPYPSLNSSRPPYGPGMGRGGGMRAPIARVSFSAQQQQKQEQSQQPTTDKAGRETMQFPRFYTDPILGRDGSLVLDALRGMATEEAYSAVEQLRVLALERPNEAKRLLHNNPALKSAVIMTLQHAGRIPLGSLPRDAYQSRRAAEAEAELAQPLPPQQPTPSQQSALPTPQQTPPQPPAESLKPAKKEARSAAKSGEARGARKRDTATGSASASAAVPSESQTSLVRPSTPMTEAERDEVLELIQSMSEEDVERVLTMSARDFAQVPDPAQRKQLEVLQKRLLVMSRDL,soluble
